The values that follow come from the Immune Epitope Database (IEDB).

In general, pKd refers to the negative decadic logarithm of the Kd, by convention in mol/L. Higher therefore signals a low Kd.

Some targets named below: HLA-B*46:01; HLA-A*29:02; HLA-A*24:03; HLA-B*57:01; HLA-B*51:01; HLA-A*02:11; HLA-A*68:02; HLA-A*69:01; HLA-A*23:01; HLA-A*02:16; HLA-A*26:01; HLA-B*39:01; HLA-B*18:01; HLA-B*27:03; HLA-A*02:19; HLA-A*02:03; HLA-A*02:01; HLA-A*03:01; HLA-B*15:01; HLA-A*02:12; HLA-B*15:17.
Holding throughout (experiment): IEDB peptide-MHC binding, purified MHC/competitive/fluorescence; filed as Kd, often an IC50 or EC50 that approximates it; ≥ and ≤ were set here for values at or beyond the usual limits of such assays
[1] abbreviates: source organism: Campylobacter jejuni subsp. jejuni NCTC 11168 = ATCC 700819.
Where [2] appears, read: source organism: Rickettsia typhi str. Wilmington.
Where [3] appears, read: source organism: Burkholderia pseudomallei K96243.
The mark [4] stands for this setting: source organism: Bacillus anthracis str. 'Ames Ancestor'.
[5] abbreviates: source organism: Shigella boydii CDC 3083-94.

pKd: −log10 of the molar value. Where only a bound is given, the exact number is not on record here.

For the sequence KGMKIQHFK, the pKd with HLA-B*46:01 (setting [1]), with HLA-A*29:02 (setting [1]), with HLA-A*24:03 (setting [1]), in the test with HLA-B*57:01 (setting [1]), with HLA-B*51:01 (setting [1]) and with HLA-A*02:11 (setting [1]) was no more than 4.70 each time. Further, the negative logarithm of the Kd (pKd) with HLA-A*68:02 (setting [1]), with HLA-A*69:01 (setting [1]), with HLA-A*23:01 (setting [1]), in the test with HLA-A*02:16 (setting [1]), with HLA-A*26:01 (setting [1]) and with HLA-B*39:01 (setting [1]) was no more than 4.70 in each case. In addition, the pKd was no more than 4.70 with HLA-B*18:01 (setting [1]); no more than 4.70 in the test with HLA-B*27:03 (setting [1]); no more than 4.70 in the test with HLA-A*02:19 (setting [1]); no more than 4.70 with HLA-A*02:03 (setting [1]); no more than 4.70 with HLA-A*02:01 (setting [1]); 7.17 with HLA-A*03:01 (setting [1]). The pKd in the test with HLA-B*15:01 (setting [1]) and in the test with HLA-A*02:12 (setting [1]) was no more than 4.70 each time.
In the case of QLEVRSTEV, the negative logarithm of the Kd (pKd) in the test with HLA-B*46:01 (setting [2]), in the test with HLA-A*29:02 (setting [2]), with HLA-A*24:03 (setting [2]), with HLA-B*57:01 (setting [2]), in the test with HLA-B*51:01 (setting [2]) and with HLA-A*02:11 (setting [2]) was no more than 4.70 throughout. Besides, the pKd with HLA-B*15:17 (setting [2]), in the test with HLA-A*23:01 (setting [2]), with HLA-A*02:16 (setting [2]), with HLA-A*26:01 (setting [2]), with HLA-B*39:01 (setting [2]) and with HLA-B*18:01 (setting [2]) was no more than 4.70 throughout. Also, the pKd was no more than 4.70 in the test with HLA-B*27:03 (setting [2]); no more than 4.70 with HLA-A*02:01 (setting [2]); no more than 4.70 in the test with HLA-A*03:01 (setting [2]); no more than 4.70 with HLA-B*15:01 (setting [2]); 6.37 in the test with HLA-A*02:12 (setting [2]).
On to DELWRGLLA, for which the pKd in the test with HLA-B*46:01 (setting [3]), with HLA-A*24:03 (setting [3]), in the test with HLA-B*57:01 (setting [3]), with HLA-B*51:01 (setting [3]), with HLA-A*68:02 (setting [3]) and in the test with HLA-A*23:01 (setting [3]) was no more than 4.70 in each case. Besides, the negative logarithm of the Kd (pKd) with HLA-A*02:16 (setting [3]) is no more than 4.70; with HLA-A*26:01 (setting [3]) it was no more than 4.70; in the test with HLA-B*39:01 (setting [3]), no more than 4.70; in the test with HLA-B*18:01 (setting [3]), 7.09; with HLA-B*27:03 (setting [3]) it was no more than 4.70; with HLA-A*02:19 (setting [3]) it was no more than 4.70. In addition, the pKd in the test with HLA-A*02:03 (setting [3]), with HLA-A*02:01 (setting [3]), in the test with HLA-A*03:01 (setting [3]), with HLA-B*15:01 (setting [3]) and with HLA-A*02:12 (setting [3]) was no more than 4.70 in each case.
With MTQNISNDK, the pKd with HLA-B*46:01 (setting [4]), with HLA-A*29:02 (setting [4]), with HLA-A*24:03 (setting [4]), with HLA-B*57:01 (setting [4]), in the test with HLA-B*51:01 (setting [4]) and with HLA-A*02:11 (setting [4]) was no more than 4.70 each time. The pKd with HLA-A*68:02 (setting [4]), with HLA-A*69:01 (setting [4]), with HLA-B*15:17 (setting [4]), with HLA-A*02:16 (setting [4]), in the test with HLA-A*26:01 (setting [4]) and with HLA-B*39:01 (setting [4]) was no more than 4.70 each time. For the same sequence, the pKd is no more than 4.70 with HLA-B*18:01 (setting [4]); no more than 4.70 in the test with HLA-B*27:03 (setting [4]); no more than 4.70 with HLA-A*02:19 (setting [4]); no more than 4.70 in the test with HLA-A*02:03 (setting [4]); no more than 4.70 with HLA-A*02:01 (setting [4]); 5.22 in the test with HLA-A*03:01 (setting [4]). For the same sequence, the pKd in the test with HLA-B*15:01 (setting [4]) and with HLA-A*02:12 (setting [4]) was no more than 4.70 each time.
In the case of RNNDPTLPY, the pKd with HLA-B*46:01 (setting [5]), with HLA-A*24:03 (setting [5]), with HLA-B*57:01 (setting [5]), with HLA-B*51:01 (setting [5]), in the test with HLA-A*68:02 (setting [5]) and in the test with HLA-A*69:01 (setting [5]) was no more than 4.70 each time. Also, the pKd in the test with HLA-B*15:17 (setting [5]), in the test with HLA-A*23:01 (setting [5]), in the test with HLA-A*02:16 (setting [5]), with HLA-A*26:01 (setting [5]), with HLA-B*39:01 (setting [5]) and with HLA-B*18:01 (setting [5]) was no more than 4.70 each time. For the same sequence, the pKd with HLA-B*27:03 (setting [5]), with HLA-A*02:19 (setting [5]), with HLA-A*02:03 (setting [5]), with HLA-A*02:01 (setting [5]) and in the test with HLA-A*02:12 (setting [5]) was no more than 4.70 throughout.
